Measured values from article PMC10384657.

Target: MPER25c (spike S2 membrane proximal region peptide) MPER (Severe acute respiratory syndrome coronavirus 2), P0DTC2
Assay: SPR
Conditions: modification not given

B1: PN19 (spike S2 internal fusion peptide) (peptide)
chain: FGAGAALQIPFAMQMAYRF
B1 was tested, and the Kd was 9.44 nM.
